Columns and labels:
[1] = target: DGLα-V5 (full-length diacylglycerol lipase-α with a C-terminal V5-epitope tag) (UniProt Q9Y4D2); experiment: co-IP
[2] = target: GST fusion protein containing the C-terminal domain (CTD; residues 761-1042) of DGLα (UniProt Q9Y4D2); experiment: pull-down
[3] = target: DGLα C-terminal domain, 761-1042 (UniProt Q9Y4D2); experiment: GST cosedimentation, CaMKII blot; conditions: reference: non-phosphorylated CaMKIIα; sites T286
DGLα = DGLα (UniProt Q9Y4D2); experiment: anti-V5 co-immunoprecipitation, CaMKIIα blot; conditions: reference: wild type CaMKIIα; sites T286

Substance: WT CaMKIIα expressed in HEK293T cells (from UniProt P11798 1-478) (enzyme)
- interaction with DGLα-V5, percent of WT [1]: 100%

Substance: purified Thr286-autophosphorylated CaMKIIα (from UniProt P11798 1-478) (enzyme)
- CaMKII detected, normalized to the input [2]: 0.37

Substance: CaMKIIα (from UniProt P11798) Thr286-autophosphorylated CaMKIIα
- other: bound CaMKII normalised to input aliquot [3]: gained; reference 0.11±0.03

Substance: CaMKIIα (from UniProt P11798) T286A
- percent of reference (DGLα): weaker; reference 100±5%

— PMC3636998
